The source of these data is patent US20180044383A1 (ALBERT EINSTEIN COLLEGE OF MEDICINE, published 2018).

Data set [1] has as its target FKBP fused to miRFP-GAF709 (UniProt P62942). The experiment in a line: cell-based or functional assay.
For data set [2], the target named is FKBP fused to miRFP-GAF670 (UniProt P62942). Description: cell-based or functional assay.
Data set [3] deals with the molecule itself. The experiment in a line: sedimentation velocity analytical ultracentrifugation in PBS at 20 C, self-association (no dimer). On the procedure: FIG. 11A-11B. Monomeric state of miRFPs confirmed by analytical ultracentrifugation analysis. miRFPs from each family of miRFPs were analyzed by sedimentation velocity analytical ultracentrifugation. miRFP670 represents miRFP proteins derived from RpBphP1; miRFP670-2 represents monomerized iRFP670 and iRFP702 derived from RpBphP6; miRFP720 represents monomerized iRFP682, iRFP713, and iRFP720 derived from RpBphP2. The proteins were analyzed at concentrations of 15 μM in PBS buffer at 20° C., the time-derivative method was used. (a) Overlay of the sedimentation coefficient distributions for iRFP670-2 (blue), iRFP713 (red), miRFP720 (magenta), and miRFP670 (cyan). (b) Overlay of the normalized best-fit sedimentation coefficient distributions. (c) The residuals corresponding to the resolved fits shown in (b).
Analytical ultracentrifugation was conducted at 20° C. and 58,000 r.p.m. with anOptima XL-I centrifuge (Beckman Coulter) using the AN-60Ti rotor and the absorption optics set to 645 nm. Sednterp v.20120828beta software was used to calculate the partial specific volume of the proteins from their sequence and the density and viscosity of the buffers. The sedimentation parameters were corrected to standard conditions (20,w) using these values. […]

Data set [4] deals with the molecule itself. The experiment in a line: size exclusion chromatography, self-association (no dimer). The text has this:
As a result, we have obtained miRFP670 (excitation/emission at 642 nm/670 nm) having Cys in the GAF domain and its dimmer version miRFP670v1 (Table 1). By changing Cys back to Ile and mutating residues 201 and 202, we found two red-shifted variants, miRFP703 (excitation/emission at 673 nm/703 nm) and miRFP709 (excitation/emission at 686 nm/709 nm) (Table 1). […] Absorbance of miRFPs was characterized by small side peaks at 280 nm (protein absorbance) and 390 nm (so called Soret band common to all tetrapyrrole compounds) and by large main peaks at 644 nm, 676 nm and 685 nm, indicative of the efficient BV incorporation. Monomeric states of miRFPs was confirmed by a size exclusion chromatography at 1 mg/ml as well as at concentrations as high as 30 mg/ml (FIG. 1d).
To perform size exclusion liquid chromatography a 2 ml volume of purified miRFPs was applied on the HiLoad 16/600 Superdex 200 column (GE Healthcare) equilibrated with 10 mM Hepes buffer pH 7.4 containing 50 μM EDTA, 10% glycerol, 150 mM NaCl, 1 mM DTT, 0.2 mM PMSF, 0.01% EP-40 and 0.2 mM […]. A 1 ml/min flow rate was used. The column was calibrated using the gel filtration standards (Bio-Rad Laboratories).

The target of the next data set is T1, miRFP-GAF670.
T1 construct: Split fragment; in the experiments it stood as a fusion (to FKBP or PCP); also called GAF fragment of miSplit670
T1 chain: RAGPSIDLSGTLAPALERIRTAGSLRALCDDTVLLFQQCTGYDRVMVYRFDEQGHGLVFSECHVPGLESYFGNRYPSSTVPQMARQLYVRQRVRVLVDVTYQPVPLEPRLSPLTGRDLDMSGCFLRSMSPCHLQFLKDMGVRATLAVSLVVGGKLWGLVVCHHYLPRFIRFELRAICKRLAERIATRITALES
The experiment in a line: bimolecular fluorescence complementation in HeLa cells (fragments as FRB and FKBP fusions, rapamycin-induced). On the procedure: (§1) The two mSplits share the same miRFP-PAS fragment that can interact with either miRFP-GAF670 or miRFP-GAF709 fragments producing the fluorescence signal corresponding to complemented miSplit670 or miSplit709, respectively. (b, c) Brightness and complementation contrast of miSplit670 (b) and miSplit709 (c) in live HeLa cells. HeLa cells were transiently transfected with the plasmids encoding the indicated proteins. Rapamycin (Rapa) was added where indicated. The mean fluorescence intensities of cells were analyzed by flow cytometry. Error bars, s.d. (n=3; transfection experiments). (d) Two-color imaging of two alternative PPIs in one cell. […] MCP and PCP are fused with two fragments of mi Split reporter. mRNA serves as a scaffold to bring two split fragments together and reconstitute fluorescence. […] The mean fluorescence intensities of cells were analyzed by flow cytometry. […] (g) Representative images of live HeLa cells analyzed in (f). […]
(§2) We first characterized miSplits using a rapamycin-induced PPI of FRB and FKBP proteins. We fused FRB to the miRFP-PAS domain and FKBP to either miRFP-GAF670 or miRFP-GAF709 domains and tested their effective brightness and BiFC contrast (the ratio between a stimulus-induced fluorescence signal and a fluorescence signal originated from non-specific complementation) in mammalian cells.

A further data set has as its target T2, miRFP-GAF709.
T2 construct: Split fragment; in the experiments it stood as a fusion (to FKBP or PCP); also called GAF fragment of miSplit709
T2 chain: T1 chain with T79F, V80I, C131I
The description is as above. On the procedure:
as §1, §2

Positions count from the first letter of the chain named.

Consider “FRB fused to miRFP-PAS (from UniProt P42345 2021-2113)”, for which, in data set [1], the BiFC contrast 0.5 h after rapamycin addition was found to be 2 fold; the BiFC contrast (the ratio between a stimulus-induced fluorescence signal and a fluorescence signal originated from non-specific complementation), miSplit709, HeLa cells, flow cytometry, 50 nM rapamycin is greater than 20 fold; the effective brightness of the complemented miSplit709 relative to parental full-length miRFP is greater than 40%. For the same molecule, in data set [2], the BiFC contrast 0.5 h after rapamycin addition turned out to be 2 fold; the BiFC contrast (the ratio between a stimulus-induced fluorescence signal and a fluorescence signal originated from non-specific complementation), miSplit670, HeLa cells, flow cytometry, 50 nM rapamycin was greater than 20 fold; the effective brightness of the complemented miSplit670 relative to parental full-length miRFP was greater than 40%.

B1: miRFP720 (other)
chain: MAEGSVARQPDLLTCDDEPIHIPGAIQPHGLLLALAADMTIVAGSDNLPELTGLAIGALIGRSAADVFDSETHNRLTIALAEPGAAVGAPITVGFTMRKDAGFIGSWHRHDQLIFLELEPPQRDVAEPQAFFRRTNSAIRRLQAAETLESACAAAAQEVRKITGFDRVMIYRFASDFSGSVIAEDRCAEVESKLGLHYPASFIPAQARRLYTINPVRIIPDINYRPVPVTPDLNPVTGRPIDLSFAILRSVSPNHLEFMRNIGMHGTMSISILRGERLWGLIVCHHRTPYYVDLDGRQACKRVAERLATQIGVMEE
modifications: biliverdin (BV) chromophore
notes: Monomerized version of dimeric iRFP720 (derived from RpBphP2); also called monomerized iRFP720
For B1, the binding result in data set [3] is “no binding (tested: 15 µM)”.

B2: miRFP670-2 (other)
chain: MARKVDLTSCDREPIHIPGSIQPCGCLLACDAQAVRITRITENAGAFFGRETPRVGELLADYFGETEAHALRNALAQSSDPKRPALIFGWRDGLTGRTFDISLHRHDGTSIIEFEPAAAEQADNPLRLTRQIIARTKELKSLEEMAARVPRYLQAMLGYHRVMLYRFADDGSGMVIGEAKRSDLESFLGQHFPASLVPQQARLLYLKNAIRVVSDSRGISSRIVPEHDASGAALDLSFAHLRSISPCHLEFLRNMGVSASMSLSIIIDGTLWGLIICHHYEPRAVPMAQRVAAKRFAERLSTHFTAAHHQR
modifications: biliverdin (BV) chromophore
notes: Monomerized version of dimeric iRFP670 (derived from RpBphP6); also called monomerized iRFP670
Regarding B2, in data set [3], the binding result was “no binding (tested: 15 µM)”.

B3: miRFP670 (other)
chain: MVAGHASGSPAFGTASHSNCEHEEIHLAGSIQPHGALLVVSEHDHRVIQASANAAEFLNLGSVLGVPLAEIDGDLLIKILPHLDPTAEGMPVAVRCRIGNPSTEYCGLMHRPPEGGLIIELERAGPSIDLSGTLAPALERIRTAGSLRALCDDTVLLFQQCTGYDRVMVYRFDEQGHGLVFSECHVPGLESYFGNRYPSSTVPQMARQLYVRQRVRVLVDVTYQPVPLEPRLSPLTGRDLDMSGCFLRSMSPCHLQFLKDMGVRATLAVSLVVGGKLWGLVVCHHYLPRFIRFELRAICKRLAERIATRITALES
modifications: biliverdin (BV) chromophore; filing says miRFP670 has the BV-binding Cys in the GAF domain (-PIH- motif Ile replaced by Cys)
notes: Monomeric near-infrared fluorescent protein engineered from the PAS-GAF domains of RpBphP1; also called mRFP670
In the case of B3, the binding result in data set [4] is recorded as “no binding (tested: 30 mg/ml)”.

B4: miRFP703 (other)
chain: B3 chain with T201L, C253I
modifications: biliverdin (BV) chromophore bound to the conserved Cys residue in the PAS domain
notes: Engineered from RpBphP1 PAS-GAF
B4: the binding result in data set [4] was “no binding (tested: 30 mg/ml)”.

B5: miRFP709 (other)
chain: B3 chain with T201F, V202I, C253I
modifications: biliverdin (BV) chromophore bound to the conserved Cys residue in the PAS domain
notes: as for B4
As for B5, the binding result in data set [4] was “no binding (tested: 30 mg/ml)”.

B6: miRFP-PAS (other)
chain: MVAGHASGSPAFGTASHSNCEHEEIHLAGSIQPHGALLVVSEHDHRVIQASANAAEFLNLGSVLGVPLAEIDGDLLIKILPHLDPTAEGMPVAVRCRIGNPSTEYCGLMHRPPEGGLIIELERAGP
notes: Split fragment; in the experiments it stood as a fusion (to FRB or to MCP); also called miRFP670-PAS domain; PAS fragment of miSplit670 and miSplit709
For B6, the binding result with miRFP-GAF670 and with miRFP-GAF709 was “binds” in each case.
